Source: patent US20150086592A1, “COMPOSITIONS OF VACCINES AND ADJUVANTS AND METHODS FOR THE TREATMENT OF URINARY TRACT INFECTIONS” (Sequoia Sciences, Inc, priority 2013, published 2015)
Where “and” joins values, the source holds several entries; their conditions need not be identical. Equal entries are not always repeated.

Assays:
FimH [1] = biological target: FimH (Escherichia coli, UniProt P08191); experiment: biochemical; conditions: concentration at which 50% inhibition of HRP binding to FimH is observed, inhibitor added in the HRP binding step
Protocol: (§1) The biological activity of the FimCH drug substance (for example, from Example 3) is determined by an in vitro mannose binding assay. The FimH protein is a bacterial adhesin utilized by E. coli to bind mannose residues on glycosylated proteins. During urinary tract infections, the FimH adhesin binds mannosylated uroplakin proteins on bladder epithelial cells, which promotes the internalization of bound E. coli. The binding of FimH to mannosylated uroplakin is essential for E. coli to cause urinary tract infections. To monitor the mannose-binding activity of FimH in vitro, FimH binding to the enzyme horseradish peroxidase (HRP) is observed. HRP is a glycosylated protein containing mannose residues, and has previously been used to study mammalian mannose-binding receptors. Complexes of HRP and the lectin ConA, which binds α-D-mannosyl and α-D-glucosyl groups, have also been generated and studied.
(§2) HRP is then added, excess HRP is rinsed away, and the activity of bound HRP is detected.

FimH [2] = biological target: FimH (Escherichia coli, UniProt P08191, P197R/T222H); experiment: biochemical
Protocol: as §1, §2

[3] = Storage stability of FimCH; assay type: physicochemical; conditions: stored at −20° C., 0.3 mg/mL in 20 mM MES pH 5.9 or 20 mM trisodium citrate, pH 5.4
Protocol: For the HIC column used Butyl Sepharose 4FF (GE Healthcare 17-0980-01) in XK26 column. Buffer C: 20 mM MES/550 mM Ammonium Sulfate, pH 5.9; 8 ml/min for XK26/10 except loading, pre-equilibrate the column with 3 CV of Buffer A (as above), equilibrate the column with 6 CV of Buffer C, load Pooled FimCH sample at 5 ml/min XK26/10 column, wash the column with 6 CV of Buffer C, elute the column with a linear 4 CV gradient from 0-100% Buffer A with fraction collection. FimCH is formulated in the concentration of 0.3 mg/mL in 20 mM MES pH 5.9 or 20 mM trisodium citrate, pH 5.4. It is then aseptically filtered through a 0.2 μm sterile filter. FimCH is stable and can be stored at −20° C. for about at least 2 years.

[4] = biological target: T1, horseradish peroxidase (HRP) (UniProt P00433 31-338); experiment: in vitro potency assay; inferred from the lack of HRP signal with the Q133K FimH-FimC complex
T1 sequence: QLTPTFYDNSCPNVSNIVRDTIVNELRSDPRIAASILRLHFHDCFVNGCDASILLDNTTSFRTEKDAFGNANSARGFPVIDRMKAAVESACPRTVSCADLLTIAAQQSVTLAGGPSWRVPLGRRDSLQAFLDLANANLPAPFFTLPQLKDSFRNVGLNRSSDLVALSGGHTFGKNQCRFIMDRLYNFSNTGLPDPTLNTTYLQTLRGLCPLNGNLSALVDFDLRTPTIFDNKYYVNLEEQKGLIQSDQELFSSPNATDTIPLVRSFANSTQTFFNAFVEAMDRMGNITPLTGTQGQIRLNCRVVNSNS

Sequence of FimH (Escherichia coli, UniProt P08191) (P08191 22-300 P197R/T222H, one chain of several): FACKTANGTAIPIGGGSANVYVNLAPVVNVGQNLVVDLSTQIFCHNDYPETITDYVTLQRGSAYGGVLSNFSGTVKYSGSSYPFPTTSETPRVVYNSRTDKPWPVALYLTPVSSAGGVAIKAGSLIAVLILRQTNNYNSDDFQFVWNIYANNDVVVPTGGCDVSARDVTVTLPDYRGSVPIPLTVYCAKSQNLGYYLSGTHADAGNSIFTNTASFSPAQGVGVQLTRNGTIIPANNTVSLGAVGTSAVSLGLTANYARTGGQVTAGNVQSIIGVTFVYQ
Sequence of FimH (Escherichia coli, UniProt P08191, P197R/T222H) (P08191 22-300 P197R/T222H, one chain of several): as above

With `CO[C@H]1O[C@H](CO)[C@@H](O)[C@H](O)[C@@H]1O` [MDMP, methyl-α-D-mannopyranoside] the IC50 (FimH [1]) was ~5.15 µM and ~5.1 µM and the “fold higher 50% inhibition concentration than UFMP” value (FimH [2]; MDMP versus UFMP) was “approximately 100 fold”.

With “FimCH: non-covalent complex of FimC and FimH recombinant proteins, approximately 51,700 Daltons” the “HRP binding (mannose-binding activity)” value (FimH [2]; captured by anti-FimH antisera on ELISA plate) was “dose-dependent” and the “time stable on storage” value [3] was “at least 2 years”.

B1: FimC (other)
chain: GVALGATRVIYPAGQKQVQLAVTNNDENSTYLIQSWVENADGVKDGRFIVTPPLFAMKGKKENTLRILDATNNQLPQDRESLFWMNVKAIPSMDKSKLTENTLQLAIISRIKLYYRPAKLALPPDQAAEKLRFRRSANSLTLINPTPYYLTVTELNAGTRVLENALVPPMGESAVKLPSDAGSNITYRTINDYGALTPKMTGVME
notes: also called FimC protein
B1: no binding [4].
